# Measured values reported in the DeepSol protein solubility set.
# Assay: soluble on expression in E. coli; label from the status in PepcDB or PDB records
row,Sequence,soluble on expression in E. coli
1,MAAIHINHDVFNKYHTNGKLRLTTGYVQEAIENNGYPGHDGIVQVLKGKVEQGEQLGHAFTFRIRISDGVFQYNALMSADIDDQIKREVEHLVEGTIIALTKFEIYDQGEGAKNCFLIKGYKILSRYHQVLTSPEVKPRSHSGKPDEHKGYRPNIIIEDVWPEAEGMAADYQENMANPPAAKAPKREFGEEASYNRAAAPEATRARAVPPPARRTASNTERGVMPIAMVTPYVSNFKIHGMVSRKEEIRTFPAKNTKVFNFEITDSNGDTIRCTAFNEVAESLYTTITENLSYYLSGGSVKQANKKFNNTGHDYEITLRSDSIIEAGGELLAAPKLILKRVKLGEIAGYAGQLIDVLVVVEKMDPEATEFTSKAGKSLIKREMELIDESGALVRLTLWGDEATKALVDDYVQKVIAFKGVIPREFNGGFSLGTGSATRIISVPEIAGVSELYDWYANVKPTTEVKMMSQAAGGSNEAPRTIAGLQEMQFGKDSDKGDYATVKAMITRVNPTNALYRGCASEGCQKKLVGENGDYRCEKCNKNMNKFKWLYMMQFELSDETGQVYVTAFGDSAAKIVGKSAAELGELHDESPDEYNAIFERLQFVPKMWRLRCKMDSYNEEVRQKMTVYGVDDVNQDKYIENLKQMIEQMQQMSDY,soluble
2,MAAKPGIPKGTRDFSPVEMAKRNYIFNTIRDVFHLFGYQQIETPSMENLSTLMGKYGDEGDKLLFKIQNSGDYFNGITDEELLSRNAVKLASKFCEKGLRYDLTVPFARYVVMHRDEISFPFKRYQIQPVWRADRPQKGRYREFYQCDADVVGSNSLLNEVELVQMIDRVFGKFGVRVSIKINNRKILTGIAEIIGEADKIVDITVAIDKLDKIGLENVNAELASKGIPQEAIDKLQPIILLSGSNEEKLETLKTVLATSEAGLKGVEESEFILKTVSALGVKSEVELDLTLARGLNYYTGAIFEVKALDVQIGSISGGGRYDNLTGVFGMDGMSGVGISFGADRIFDVLNQLDLYPKEAVNGTELLFVNFGDKEAAYCLPILTKVREAGVRAEIYPDASKMKKQMGYANDKQIPFVAIVGENEMNEGKLTLKNMTTGEQSLVTPDELLAVVKA,not soluble
3,MAAQRLGKRVLSKLQSPSRARGPGGSPGGLQKRHARVTVKYDRRELQRRLDVEKWIDGRLEELYRGMEADMPDEINIDELLELESEEERSRKIQGLLKSCGKPVEDFIQELLAKLQGLHRQPGLRQPSPSHDGSLSPLQDRARTAHP,soluble
4,MAARNAGTARPGGPNRTCQFKLVLLGESAVGKSSLVLRFVKGQFHEYQESTIGAAFLTQTVCLDDATIKFEIWDTAGQERYHSLAPMYYRGAQAAIVVYDITNQESFQKAKNWVKELQRQASPNIVMALAGNKADVANKRTVEYEEANAYAEDNALLFMETSAKTSMNVNDIFMAIAKKLPIGPAQGEPTGTVDMNQPQQQQKGSCCK,not soluble
5,MAARQQLALLSVSEKAGLVEFARSLNALGLGLIASGGTATALRDAGLPVRDVSDLTGFPEMLGGRVKTLHPAVHAGILARNIPEDNADMNKQDFSLVRVVVCNLYPFVKTVSSPGVTVPEAVEKIDIGGVALLRAAAKNHARVTVVCDPADYSSVAKEMAASKDKDTSVETRRHLALKAFTHTAQYDAAISDYFRKEYSKGVSQLPLRYGMNPHQSPAQLYTTRPKLPLTVVNGSPGFINLCDALNAWQLVKELKQALGIPAAASFKHVSPAGAAVGIPLSEEEAQVCMVHDLHKTLTPLASAYARSRGADRMSSFGDFIALSDICDVPTAKIISREVSDGVVAPGYEEEALKILSKKKNGGYCVLQMDPNYEPDDNEIRTLYGLQLMQKRNNAVIDRSLFKNIVTKNKTLPESAVRDLIVASIAVKYTQSNSVCYAKDGQVIGIGAGQQSRIHCTRLAGDKANSWWLRHHPRVLSMKFKAGVKRAEVSNAIDQYVTGTIGEDEDLVKWQAMFEEVPAQLTEAEKKQWIAKLTAVSLSSDAFFPFRDNVDRAKRIGVQFIVAPSGSAADEVVIEACNELGITLIHTNLRLFHH,soluble
6,MAASLWMGDLEPYMDENFISRAFATMGETVMSVKIIRNRLTGIPAGYCFVEFADLATAEKCLHKINGKPLPGATPAKRFKLNYATY,soluble
7,MAATCSWKTCEETEQNTFIVKFSNGNVKNAEELDFTVFKHSNASNPRKKNRRIVVADSDRLPYVGSNFGSGSLQSNNMCKYFVGVLDKQTMQMKVHSAQLFNMLPVIPGEATEAESENQPSTFRDKVDALIEAFGTNKQKRALSSRRLNAVGNETLHQAVAQAASNIIDQKGVEALRNEVIETEAQSDAALFLPPCNANADKLEDVYPFDQLLTPNEFESLKEVGAKYATLSSEDLQKMRDNHCPQTVLKHLETLSKDEADRDRQCRCAWYLSFVIRASLQKRISFKFGSDDGCPRIIINKVLKNFTVESFHNGSLRNTVSMSMRMKMASYCLALLLHMGGQTANLTLLHRDMSISENKMLEVAKAMGLTLSRQNALGKEGGLIEDEHRMVSLVLPLVHYDRRTERKKRKRMN,soluble
8,MADAIQTAPRFTGKNRDPQLFTVTNHYNEAGTGPLEAAICRHNPLHVVSAALRHQHEESQCPDRKWNPSEKIVKYKDMQ,not soluble
9,MADDRGVFPGQWALSGGGVESGERIEEALRREIREELGEQLLLTEITPWTFSDDIRTKTYADGRKEEIYMIYLIFDCVSANREVKINEEFQDYAWVKPEDLVHYDLNVATRKTLRLKGLL,not soluble
10,MADEALFLLLHNEMVSGVYKSAEQGEVENGRCITKLENMGFRVGQGLIERFTKDTARFKDELDIMKFICKDFWTTVFKKQIDNLRTNHQYLAFTCGLIRGGLSNLGIKSIVTAEVSSMPACKFQVMIQKL,not soluble
11,MADGLRVALVAGEASGDILGSGLMQALRARHPDIEFIGVGGPRMEAEGLSSYFPMERLSVMGLVEVLGRLPELLRRRKRLIRTLIEARPDVMIGIDAPDFTLGVEHKLRQAGLRTVHYVSPSVWAWRQKRVLKIREACDLMLALFPFEARFYEEHGVPVRFVGHPLANTIPLQADRAAARARLGLPADGQVLALMPGSRGGEVGKLGALFLDTAQRLLVERPGLRFVLPCASAARREQIEQMLQGREPLPLTLLDGASHEALAACDAVLIASGTATLEALLYKRPMVVAYRVAGLTYRILKRLVKSPYISLPNLLAGRLLVPELIQDAATPQALAATLSPLLDDGSQQVEFFDAIHRALRQDASAQAA,not soluble
12,MADHSIQGKVALIAGGAKNLGGLIARDLAAHGARAIAIHYNSPASKADADATVAALQAAGAQAVALQGDLTTAAAVEKLYADALAAVGRPDIAINTVGKVLKKPFSEISEAEYDEMAAVNAKSAFFFLKEAGRHVNDHGKIVTLVTSLLGAFTPFYSAYAGTKAPVEHYTRAAAKEFGARGISVTAVGPGPMDTPFFYGQESPEAVAYHQSAAALSPHSPTGLTHIEDVVPFIRHLVSDGWWITGQTLLINGGYTTK,not soluble
13,MADRIELRGLTVHGRHGVYDHERVAGQRFVIDVTVWIDLAEAANSDDLADTYDYVRLASRAAEIVAGPPRKLIETVGAEIADHVMDDQRVHAVEVAVHKPQAPIPQTFDDVAVVIRRSRRGGRGWVVPAGGAV,soluble
14,MADSQTSSNRAGEFSIPPNTDFRAIFFANAAEQQHIKLFIGDSQEPAAYHKLTTRDGPREATLNSGNGKIRFEVSVNGKPSATDARLAPINGKKSDGSPFTVNFGIVVSEDGHDSDYNDGIVVLQWPIG,soluble
15,MADYNIPHFQNDLGYKIIEIGVKEFMCVGATQPFDHPHIFIDMGSTDEKICPYCSTLYRYDPSLSYNQTNPTGCLYNPK,not soluble
16,MAEFLDDQETRLCDNCKKEIPVFNFTIHEIHCQRNIGMCPTCKEPFPKSDMETHMAAEHCQVTCKCNKKLEKRLLKKHEETECPLRLAVCQHCDLELSILKLKEHEDYCGARTELCGNCGRNVLVKDLKTHPEVCGREGEEKRNEVAIPPNAYDESWGQDGIWIASQLLRQIEALDPPMRLPRRPLRAFESDVFHNRTTNQRNITAQVSIQNNLFEEQERQERNRGQQPPKEGGEESANLDFMLALSLQNEGQASSVAEQDFWRAVCEADQSHGGPRSLSDIKGAADEIMLPCEFCEELYPEELLIDHQTSCNPSRALPSLNTGSSSPRGVEEPDVIFQNFLQQAASNQLDSLMGLSNSHPVEESIIIPCEFCGVQLEEEVLFHHQDQCDQRPATATNHVTEGIPRLDSQPQETSPELPRRRVRHQGDLSSGYLDDTKQETANGPTSCLPPSRPINNMTATYNQLSRSTSGPRPGCQPSSPCVPKLSNSDSQDIQGRNRDSQNGAIAPGHVSVIRPPQNLYPENIVPSFSPGPSGRYGASGRSEGGRNSRVTPAAANYRSRTAKAKPSKQQGAGDAEEEEEE,soluble
